Experimental findings from publication PMC6309364 are described below.

The experiment has as its target _(SUMO)BMC-HRmm (SUMOylated BMC-H protein of Mycobacterium smegmatis) (Mycobacterium smegmatis). Kind of experiment: SEC.

A word on the stoichiometry N: it is a count of units in the complex or per binding partner. Substance “_(SUMO)BMC-HRmm (SUMOylated BMC-H protein of Mycobacterium smegmatis) (natural protein)” showed a stoichiometry N of 6.
